Source: US20230340152A1 (published 2023)

Assays:
Human CD73 ECD [1] = biological target: T1, Human CD73 ECD (human, UniProt P21589 27-549); assay: cell-based or functional assay
T1 sequence: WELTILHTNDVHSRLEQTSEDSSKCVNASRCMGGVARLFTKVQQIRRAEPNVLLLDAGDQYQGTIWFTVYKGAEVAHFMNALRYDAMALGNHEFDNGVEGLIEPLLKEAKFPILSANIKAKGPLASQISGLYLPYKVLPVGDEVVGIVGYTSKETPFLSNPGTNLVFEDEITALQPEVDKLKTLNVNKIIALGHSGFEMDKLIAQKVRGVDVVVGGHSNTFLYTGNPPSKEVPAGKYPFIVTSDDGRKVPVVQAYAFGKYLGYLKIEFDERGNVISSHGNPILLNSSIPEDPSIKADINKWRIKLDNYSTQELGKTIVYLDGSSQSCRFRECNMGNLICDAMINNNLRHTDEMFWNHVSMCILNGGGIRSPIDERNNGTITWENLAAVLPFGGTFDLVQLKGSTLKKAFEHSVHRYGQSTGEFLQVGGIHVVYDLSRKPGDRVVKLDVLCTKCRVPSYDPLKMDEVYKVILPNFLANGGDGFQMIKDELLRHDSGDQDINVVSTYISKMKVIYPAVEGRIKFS

[2] = biological target: T2, Human CD73 on cells (MDA-MB-231, Jurkat CD73 knock-in, NCI-H322) (human, UniProt P21589 27-549); assay: cell-based or functional assay
T2 sequence: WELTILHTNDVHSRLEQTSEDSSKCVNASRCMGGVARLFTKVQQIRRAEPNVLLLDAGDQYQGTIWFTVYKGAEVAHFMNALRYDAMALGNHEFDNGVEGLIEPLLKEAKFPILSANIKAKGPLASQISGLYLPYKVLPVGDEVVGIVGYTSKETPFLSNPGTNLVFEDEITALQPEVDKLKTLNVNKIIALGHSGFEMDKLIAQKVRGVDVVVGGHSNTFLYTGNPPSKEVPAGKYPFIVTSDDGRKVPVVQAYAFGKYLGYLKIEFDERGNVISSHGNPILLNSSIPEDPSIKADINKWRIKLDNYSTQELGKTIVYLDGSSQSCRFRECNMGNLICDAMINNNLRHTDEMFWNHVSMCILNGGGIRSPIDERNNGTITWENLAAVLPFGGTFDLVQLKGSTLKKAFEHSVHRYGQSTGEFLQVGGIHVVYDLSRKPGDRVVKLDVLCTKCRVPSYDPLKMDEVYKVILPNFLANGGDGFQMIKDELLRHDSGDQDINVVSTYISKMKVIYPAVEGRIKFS

Human CD73 ECD [3] = biological target: T1, Human CD73 ECD; assay: binding assay, format not stated
Cynomolgus CD73 ECD [4] = biological target: T3, Cynomolgus CD73 ECD (cynomolgus, UniProt A0A2K5V5U7 27-549); assay: binding assay, format not stated
T3 construct: extracellular domain; also called cyno CD73
T3 sequence: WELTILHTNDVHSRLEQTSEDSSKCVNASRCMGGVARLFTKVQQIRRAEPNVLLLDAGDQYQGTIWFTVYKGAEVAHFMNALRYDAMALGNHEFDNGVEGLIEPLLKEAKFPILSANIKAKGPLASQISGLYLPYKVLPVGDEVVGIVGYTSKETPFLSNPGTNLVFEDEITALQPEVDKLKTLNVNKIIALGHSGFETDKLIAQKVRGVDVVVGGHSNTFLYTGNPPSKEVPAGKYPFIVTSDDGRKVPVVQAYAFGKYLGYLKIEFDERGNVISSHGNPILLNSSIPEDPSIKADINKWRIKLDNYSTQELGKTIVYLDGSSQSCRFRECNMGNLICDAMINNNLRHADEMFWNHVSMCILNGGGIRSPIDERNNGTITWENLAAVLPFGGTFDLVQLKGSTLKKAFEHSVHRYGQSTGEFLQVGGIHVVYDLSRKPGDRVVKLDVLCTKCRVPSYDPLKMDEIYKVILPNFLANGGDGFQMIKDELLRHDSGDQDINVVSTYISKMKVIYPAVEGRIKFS

Murine CD73 ECD [5] = biological target: T4, Murine CD73 ECD (murine, UniProt Q61503 29-551, limits assumed); assay: binding assay, format not stated
T4 construct: extracellular domain; In-house recombinant ECD; also called murine CD73 extracellular domain; muCD73
T4 sequence (looked up): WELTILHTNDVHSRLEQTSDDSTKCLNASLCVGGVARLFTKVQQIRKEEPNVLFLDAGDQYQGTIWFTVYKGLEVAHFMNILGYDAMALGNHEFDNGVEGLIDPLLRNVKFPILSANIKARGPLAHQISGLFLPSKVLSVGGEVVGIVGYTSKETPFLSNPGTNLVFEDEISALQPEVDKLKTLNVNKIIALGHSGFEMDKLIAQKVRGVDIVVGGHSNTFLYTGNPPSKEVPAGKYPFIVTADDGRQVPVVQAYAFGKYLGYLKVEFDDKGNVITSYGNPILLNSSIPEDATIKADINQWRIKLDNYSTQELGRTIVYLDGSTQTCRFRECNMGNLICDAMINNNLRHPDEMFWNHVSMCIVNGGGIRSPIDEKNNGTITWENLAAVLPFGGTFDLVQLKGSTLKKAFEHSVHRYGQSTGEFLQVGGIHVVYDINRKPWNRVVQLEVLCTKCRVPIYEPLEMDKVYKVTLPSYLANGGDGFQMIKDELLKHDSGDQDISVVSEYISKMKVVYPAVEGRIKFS

[6] = biological target: CD73 (species and format not stated); assay: binding assay not stated
[7] = biological target: T5, Murine CD73 on cells (4T1, Jurkat mCD73 knock-in) (murine, UniProt Q61503 29-551); assay: flow cytometry on cells
T5 construct: whole, on cells; also called 4T1 (murine)
T5 sequence (looked up): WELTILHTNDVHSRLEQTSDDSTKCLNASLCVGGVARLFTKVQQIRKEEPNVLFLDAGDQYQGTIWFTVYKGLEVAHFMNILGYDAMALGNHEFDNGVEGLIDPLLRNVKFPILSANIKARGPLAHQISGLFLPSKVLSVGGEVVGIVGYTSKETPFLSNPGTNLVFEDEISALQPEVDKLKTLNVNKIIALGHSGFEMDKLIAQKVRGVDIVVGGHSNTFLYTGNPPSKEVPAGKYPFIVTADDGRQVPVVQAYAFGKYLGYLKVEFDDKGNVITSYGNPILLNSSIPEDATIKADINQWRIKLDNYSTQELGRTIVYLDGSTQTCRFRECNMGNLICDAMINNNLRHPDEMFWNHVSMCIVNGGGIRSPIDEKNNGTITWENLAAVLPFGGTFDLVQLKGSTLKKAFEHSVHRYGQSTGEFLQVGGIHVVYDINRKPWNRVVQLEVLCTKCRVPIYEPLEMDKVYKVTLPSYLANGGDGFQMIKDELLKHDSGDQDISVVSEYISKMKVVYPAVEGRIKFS

[8] = biological target: T2, Human CD73 on cells (MDA-MB-231, Jurkat …); assay: flow cytometry on cells
Human CD73 ECD [9] = biological target: T1, Human CD73 ECD; assay: SPR (Proteon)
Cynomolgus CD73 ECD [10] = biological target: T3, Cynomolgus CD73 ECD; assay: SPR (Proteon)
Murine CD73 ECD [11] = biological target: T4, Murine CD73 ECD; assay: SPR (Proteon)
Human CD73 ECD [12] = biological target: T1, Human CD73 ECD; assay: capture ELISA and direct ELISA, normalized Fab supernatants
Murine CD73 ECD [13] = biological target: T4, Murine CD73 ECD; assay: as above
[14] = biological target: T5, Murine CD73 on cells (4T1, Jurkat mCD73 …); assay: cell-based or functional assay
[15] = biological target: T2, Human CD73 on cells (MDA-MB-231, Jurkat …); assay: cell-based or functional assay; remark: listed apart in the source
[16] = biological target: T6, Cynomolgus CD73 on MK-1 cells (cynomolgus, UniProt A0A2K5V5U7 27-549); assay: flow cytometry on cells
T6 construct: whole, on cells; also called MK-1 (cyno)
T6 sequence: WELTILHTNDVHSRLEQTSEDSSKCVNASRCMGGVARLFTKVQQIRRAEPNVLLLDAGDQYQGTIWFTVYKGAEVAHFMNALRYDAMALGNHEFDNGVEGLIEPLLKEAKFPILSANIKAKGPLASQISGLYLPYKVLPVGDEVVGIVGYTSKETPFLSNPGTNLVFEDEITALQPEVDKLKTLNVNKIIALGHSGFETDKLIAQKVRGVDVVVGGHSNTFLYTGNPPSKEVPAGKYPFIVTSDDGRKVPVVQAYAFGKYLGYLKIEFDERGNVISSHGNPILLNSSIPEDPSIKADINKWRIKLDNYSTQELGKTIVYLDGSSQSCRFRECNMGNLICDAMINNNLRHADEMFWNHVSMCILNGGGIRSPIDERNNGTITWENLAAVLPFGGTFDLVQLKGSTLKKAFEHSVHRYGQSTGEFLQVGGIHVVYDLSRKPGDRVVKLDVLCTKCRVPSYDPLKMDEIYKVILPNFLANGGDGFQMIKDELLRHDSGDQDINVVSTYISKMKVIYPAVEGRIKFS

Human CD73 ECD [17] = biological target: T1, Human CD73 ECD; assay: binding to recombinant human CD73 by flow cytometry, IgG1-TM
Murine CD73 ECD [18] = biological target: T4, Murine CD73 ECD; assay: binding to recombinant murine CD73 by flow cytometry, IgG1-TM
[19] = biological target: T2, Human CD73 on cells (MDA-MB-231, Jurkat …); assay: flow cytometry on MDA-MB-231 cells, IgG from 293F cells

| Binder | Enzyme Inhibition, rCD73, 1/EC50 (nM) (Human CD73 ECD [1]) [nM⁻¹] | Enzyme Inhibition, MDA-MB-231, 1/EC50 (nM) [2] [nM⁻¹] | Internalization, MDA-MB-231, 1/EC50 (nM) [2] [nM⁻¹] | 1/EC50 (Human CD73 ECD [3]) [nM⁻¹] | 1/EC50 (Cynomolgus CD73 ECD [4]) [nM⁻¹] | 1/EC50 (Murine CD73 ECD [5]) [nM⁻¹] | Kd [7] [pM] | Kd [8] [pM] | Kd (Human CD73 ECD [9]) [pM] | Kd (Cynomolgus CD73 ECD [10]) [pM] | Kd (Murine CD73 ECD [11]) [pM] | FabZAP internalization, EC50, 4T1 [14] [pM] | FabZAP internalization, maximum toxicity, 4T1 [14] [%] | FabZAP internalization, EC50, MDA-MB-231 [15] [pM] | FabZAP internalization, maximum toxicity, MDA-MB-231 [15] [%] | Kd [16] [pM] | other results |
| --- | --- | --- | --- | --- | --- | --- | --- | --- | --- | --- | --- | --- | --- | --- | --- | --- | --- |
| CD730010 (antibody, V domains shown, IgG1-TM format (L234F, L235E, P331S); also called CD730010 antibody; clone 10) VH: not shown VL: LPVLTQPPSVSGTPGQRVTISCSGSLSNIGRNPVNWYKQVPGTAPKLLIYLNNQRPSGVPDRFSGSKSGTSASLAISGLQSEDEADYYCATWDDSLNGWLFGGGTKLTVL | 0.0062 | 0.33 | 0.0062 | 0.0034 | 0.0033 | 0.0024 | 6100 | 8000 | 3580 | 1920 | 2470 |  |  |  |  |  | EC50 [6]: 69000 pM |
| Clone D3 Fab (Fab, V domains shown, Bacterial Fab from the combinatorial library) VH: EVQLLESGGGLVQPGGSLRLSCAASGFTFSSYAYSWVRQAPGKGLEWVSAISGSGGRTYYADSVKGRFTISRDNSKNTLYLQMNSLRAEDTAVYYCARLGYSTIDLWGRGTLVTVSS VL: QSVLTQPPSASGTPGQRVTISCSGSLSNIGRNPVNWYQQLPGTAPKLLIYLDNLRLSGVPDRFSGSKSGTSASLAISGLQSEDEADYYCATWDDSLIGWLFGGGTKLTVL |  |  |  |  |  |  |  |  |  |  |  |  |  |  |  |  | binding result (Human CD73 ECD [12]): binds; binding result (Murine CD73 ECD [13]): binds |
| CD730002 (antibody, V domains shown, IgG1-TM format; also called CD730002 antibody; clone 2) VH: not shown VL: QSVLTQPPSVSVSPGQTATITCSGDKVGDKYASWYQQKPGQSPVLVIYEDTKRPSRIPERFSGSNSGNTATLTISGTQALDEADYFCQAWDTSFWVFGGGTKLTVL | 0.021 | 12 | 0.021 | 0.1 | 0.2 | 0.024 | 50 | 52 | 7 | 15 | 40 | 206 | 83 | 7.1 | 95 | 52 |  |
| CD730002 SGMY (antibody, IgG1, V domains shown, IgG1-TM; non-germlined VH, fully germlined VL (S20, G57, M81, Y87); also called Clone 2 SGMY) VH: not shown VL: QSVLTQPPSVSVSPGQTASITCSGDKVGDKYASWYQQKPGQSPVLVIYEDTKRPSGIPERFSGSNSGNTATLTISGTQAMDEADYYCQAWDTSFWVFGGGTKLTVL |  |  |  |  |  |  |  |  |  |  |  |  |  |  |  |  | binding result (Human CD73 ECD [17]): binds; binding result (Murine CD73 ECD [18]): binds |
| CD730002 2C5 (antibody, V domains shown, IgG1-TM format; also called clone 2C5 antibody) VH: EVQLLESGGGLVQPGGSLRLSCAASGFTFSSYAMSWVRQAPGKGLEWVSAISGSGGSTYYADSVKRRFTISRDNSKNTLYLQMNSLRAEDTAVYYCARDKGYYWYMDVWGQGTMVTVSS VL: QSVLTQPPSVSVSPGQTASITCSGDKVGDKYASWYQQKPGQSPVLVIYEDTKRLSGIPERFSGSNSGNTATLTISGTQAMDEADYYCQAWDTSFWVFGGGTKLTVL |  |  |  |  |  |  | 55 | 84 | 9 | 9 | 22 | 173 | 82 | 9.1 | 98 | 63 | fold lower EC50 than parental CD730002SGMY [19]: 3 fold |
| 73combo1 (C1+GRVE+HPT) (antibody, V domains shown, IgG1-TM format; also called 73combol; clone 10 combo1) VH: EVQLLESGGGLVQPGGSLRLSCAASGFTFSSYAYSWVRQAPGKGLEWVSAISGSGGSTYYADSVKGRFTISRDNSKNTLYLQMNSLRAEDTAVYYCARLGYGRVDEWGRGTLVTVSS VL: not shown |  |  |  |  |  |  | 150 | 157 | 7 | 8 | 2 | 33.1 | 97 | 3.8 | 97 | 90 |  |
